Assay results taken from patent US20230406951A1 (Pfizer, published 2023).
Where a chain is given by its changes, count along the chain named.

T1: human TNFR2 (human, UniProt P20333 23-461)
T1 construct: expressed on the surface of CHO cells; also called HuTNFR2; TNFRSF1B
T1 sequence: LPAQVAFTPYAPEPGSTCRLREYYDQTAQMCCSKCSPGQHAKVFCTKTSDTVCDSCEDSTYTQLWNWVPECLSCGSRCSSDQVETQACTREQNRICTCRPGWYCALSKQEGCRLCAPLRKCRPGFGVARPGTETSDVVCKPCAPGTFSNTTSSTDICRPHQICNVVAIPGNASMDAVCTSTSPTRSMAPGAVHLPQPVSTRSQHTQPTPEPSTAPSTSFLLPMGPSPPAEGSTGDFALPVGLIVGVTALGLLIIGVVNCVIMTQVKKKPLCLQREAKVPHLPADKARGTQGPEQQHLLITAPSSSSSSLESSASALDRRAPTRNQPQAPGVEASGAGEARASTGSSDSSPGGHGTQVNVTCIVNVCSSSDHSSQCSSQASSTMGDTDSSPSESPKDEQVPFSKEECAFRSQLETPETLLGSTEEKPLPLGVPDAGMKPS

B1: IgG 1962 (antibody, name in Kabat numbering, V domains shown)
VH: QVQLVQSGAEVKKPGASVKVSCKVSGFSFPSSGVDWVRQAPGQGLEWLGVTFQEGSTHYNQKFQGRVTITKDTSKSTVYMELSSLRSEDTAVYYCASGEHDEGFVYWGQGTLVTVSS
VL: DIQLTQSPSFLSASVGDRVTITCKASQNVGTAVAWYQQKPGKAPKLLIYAASTLQSGVPSRFSGSGSGTEFTLTISSLQPEDFATYYCQQYSSYPLTFGGGTKVEIKR
notes: IgG
B2: IgG 2039 (antibody, name in Kabat numbering, V domains shown)
VH: B1 VH with F52R, Q53G, H100R
VL: B1 VL with Q89L
notes: IgG
B3: IgG 2026 (antibody, name in Kabat numbering, V domains shown)
VH: B1 VH with F52L, Q53G, E54H
VL: B1 VL with Q89L, Y91K
notes: IgG
B4: IgG 1965 (antibody, name in Kabat numbering, V domains shown)
VH: B1 VH with F52L, Q53G, E54H, H100S, D101T
VL: B1 VL
notes: IgG
B5: IgG 2043 (antibody, name in Kabat numbering, V domains shown)
VH: B1 VH with H100R
VL: B1 VL with Q89L
notes: IgG
B6: IgG 2035 (antibody, name in Kabat numbering, V domains shown)
VH: B1 VH with F52K, Q53G, E54Q, H100R
VL: B1 VL with Q89L
notes: IgG
B7: IgG 2041 (antibody, name in Kabat numbering, V domains shown)
VH: B1 VH with H100S, D101T
VL: B1 VL with Q89L
notes: IgG
B8: IgG 1970 (antibody, name in Kabat numbering, V domains shown)
VH: B1 VH with F52H, Q53G, E54S
VL: B1 VL
notes: IgG
B9: IgG 1972 (antibody, name in Kabat numbering, V domains shown)
VH: B1 VH with F52H, Q53G, E54S, H100Q
VL: B1 VL
notes: IgG
B10: IgG 2042 (antibody, name in Kabat numbering, V domains shown)
VH: B1 VH
VL: B1 VL with Q89L
notes: IgG
B11: IgG 2030 (antibody, name in Kabat numbering, V domains shown)
VH: B1 VH with F52H, Q53G, E54S
VL: B1 VL with Q89L, Y91K
notes: IgG
B12: IgG 1971 (antibody, name in Kabat numbering, V domains shown)
VH: B1 VH with F52H, Q53G, E54S, H100R
VL: B1 VL
notes: IgG
B13: IgG 2021 (antibody, name in Kabat numbering, V domains shown)
VH: B1 VH with H100S, D101T
VL: B1 VL with Q89L, Y91K
notes: IgG
B14: IgG 2036 (antibody, name in Kabat numbering, V domains shown)
VH: B1 VH with F52K, Q53G, E54Q, H100Q
VL: B1 VL with Q89L
notes: IgG
B15: IgG 2038 (antibody, name in Kabat numbering, V domains shown)
VH: B1 VH with F52R, Q53G
VL: B1 VL with Q89L
notes: IgG
B16: IgG 2025 (antibody, name in Kabat numbering, V domains shown)
VH: B1 VH with F52L, Q53G, E54H, H100S, D101T
VL: B1 VL with Q89L, Y91K
notes: IgG
B17: IgG 2016 (antibody, name in Kabat numbering, V domains shown)
VH: B1 VH with F52K, Q53G, E54Q, H100Q
VL: B1 VL with Q89L, Y91K
notes: IgG
B18: IgG 1963 (antibody, name in Kabat numbering, V domains shown)
VH: B1 VH with H100R
VL: B1 VL
notes: IgG
B19: IgG 2023 (antibody, name in Kabat numbering, V domains shown)
VH: B1 VH with H100R
VL: B1 VL with Q89L, Y91K
notes: IgG
B20: IgG 2044 (antibody, name in Kabat numbering, V domains shown)
VH: B1 VH with H100Q
VL: B1 VL with Q89L
notes: IgG
B21: IgG 2032 (antibody, name in Kabat numbering, V domains shown)
VH: B1 VH with F52H, Q53G, E54S, H100Q
VL: B1 VL with Q89L, Y91K
notes: IgG
B22: IgG 2019 (antibody, name in Kabat numbering, V domains shown)
VH: B1 VH with F52R, Q53G, H100R
VL: B1 VL with Q89L, Y91K
notes: IgG
B23: IgG 2031 (antibody, name in Kabat numbering, V domains shown)
VH: B1 VH with F52H, Q53G, E54S, H100R
VL: B1 VL with Q89L, Y91K
notes: IgG
B24: IgG 1969 (antibody, name in Kabat numbering, V domains shown)
VH: B1 VH with F52H, Q53G, E54S, H100S, D101T
VL: B1 VL
notes: IgG
B25: IgG 1967 (antibody, name in Kabat numbering, V domains shown)
VH: B1 VH with F52L, Q53G, E54H, H100R
VL: B1 VL
notes: IgG
B26: IgG 1966 (antibody, name in Kabat numbering, V domains shown)
VH: B1 VH with F52L, Q53G, E54H
VL: B1 VL
notes: IgG
B27: IgG 2017 (antibody, name in Kabat numbering, V domains shown)
VH: B1 VH with F52R, Q53G, H100S, D101T
VL: B1 VL with Q89L, Y91K
notes: IgG
B28: IgG 2034 (antibody, name in Kabat numbering, V domains shown)
VH: B1 VH with F52K, Q53G, E54Q
VL: B1 VL with Q89L
notes: IgG
B29: IgG 2022 (antibody, name in Kabat numbering, V domains shown)
VH: B1 VH
VL: B1 VL with Q89L, Y91K
notes: IgG
B30: IgG 2013 (antibody, name in Kabat numbering, V domains shown)
VH: B1 VH with F52K, Q53G, E54Q, H100S, D101T
VL: B1 VL with Q89L, Y91K
notes: IgG
B31: IgG 2033 (antibody, name in Kabat numbering, V domains shown)
VH: B1 VH with F52K, Q53G, E54Q, H100S, D101T
VL: B1 VL with Q89L
notes: IgG
B32: IgG 2015 (antibody, name in Kabat numbering, V domains shown)
VH: B1 VH with F52K, Q53G, E54Q, H100R
VL: B1 VL with Q89L, Y91K
notes: IgG
B33: IgG 2037 (antibody, name in Kabat numbering, V domains shown)
VH: B1 VH with F52R, Q53G, H100S, D101T
VL: B1 VL with Q89L
notes: IgG

The binders below were run against T1, human TNFR2 (assay: binding to human TNFR2 CHO cells).
B1: no binding.
B2: no binding.
B3: no binding.
B4: no binding.
B5: no binding.
B6: no binding.
B7: no binding.
B8: no binding.
B9: no binding.
B10: no binding.
B11: no binding.
B12: no binding.
B13: no binding.
B14: no binding.
B15: no binding.
B16: no binding.
B17: no binding.
B18: no binding.
B19: no binding.
B20: no binding.
B21: no binding.
B22: no binding.
B23: no binding.
B24: no binding.
B25: no binding.
B26: no binding.
B27: no binding.
B28: no binding.
B29: no binding.
B30: no binding.
B31: no binding.
B32: no binding.
B33: no binding.
